Test results reported in US12702716B2, “Monocyte-specific aptamers and uses thereof for delivering therapeutic agents to heart” (Academia Sinica, priority 2020, dated 2026).

Legend:
[1] = system: human monocyte cell line U937; assay: Flow cytometry binding of Cy5-labeled aptamers to U937; conditions: 200 nM Cy5-aptamer, 4° C., 30 minutes; FIG. 3
Description: (§1) To confirm that J10 binding, but not S2 binding, was selective to human monocytes in vitro, Cy5-labeled J10 and S2 were also incubated with the human monocyte cell lines, THP-1 and U937, and human umbilical cord endothelial cells (HUVEC), which were used as a negative control. In brief, 5×10^5 of each selected cell line was pre-mixed in a bloc king buffer (20% FBS and 10% salmon sperm DNA in PBS) at 4° C. for 30 minutes. After that, the cells were reacted with 200 nM Cy5-J10 or Cy5-S2 in the blocking buffer at 4° C. for 30 minutes. Finally, the sample was subjected to flow cytometry using standard protocols known in the art.

[2] = system: mouse endothelial cell line SVEC; assay: Flow cytometry binding of Cy5-labeled aptamers to SVEC (negative selection); conditions: 200 nM Cy5-aptamer, 4° C., 30 minutes; FIG. 2A
Description: (§2) Cy5-labeled J10 and S2 were also incubated with the mouse endothelial cell line SVEC which was used as a negative selection. In brief, 5×10^5 of each selected cell line was pre-mixed in a bloc king buffer (20% FBS and 10% salmon sperm DNA in PBS) at 4° C. for 30 minutes. After that, the cells were reacted with 200 nM Cy5-J10 or Cy5-S2 in the blocking buffer at 4° C. for 30 minutes. Finally, the sample was subjected to flow cytometry using standard protocols known in the art.

[3] = system: human umbilical cord endothelial cells (HUVEC); assay: Flow cytometry binding of Cy5-labeled aptamers to HUVEC (negative control); conditions: 200 nM Cy5-aptamer, 4° C., 30 minutes; FIG. 3
Description: as §1

[4] = system: human monocyte cell line THP-1; assay: Flow cytometry binding of Cy5-labeled aptamers to THP-1; conditions: 200 nM Cy5-aptamer, 4° C., 30 minutes; FIG. 3
Description: as §1

[5] = system: infarct area of the injured hearts; conditions: mouse, iv
Description: as §2
To generate the murine I/R models, 8-10 weeks old mice were anesthetised with 80 mg/kg Zoletil 50 and 3.5 mg/kg Rompun and given O2 via a tracheal tube on the 37° C. heating pad. The heart was accessed via left thoracotomy between the third and fourth ribs. The left anterior descending coronary artery was temporarily ligated with sutures 7-0 polypropylene through polyethylene-10 tubing for 45 minutes. Subsequently, polyethylene-10 tubing was removed to induce myocardial ischemia/reperfusion injury. The success of the surgery was evaluated by echocardiography on the following day.

[6] = system: J774A.1 monocyte cell line; assay: Flow cytometry binding of Cy5-labeled aptamers to J774A.1; parameters: species or system mouse; conditions: 200 nM Cy5-aptamer, 4° C., 30 minutes; FIG. 2A
Description: as §2

[7] = system: RAW264.7 monocyte cell line; assay: Flow cytometry binding of Cy5-labeled aptamers to RAW264.7; parameters: species or system mouse; conditions: 200 nM Cy5-aptamer, 4° C., 30 minutes; FIG. 2A
Description: as §2

[8] = system: circulating myeloid cells (CD45+ CD11b+ cells); assay: Ex vivo binding to peripheral blood cells by flow cytometry; parameters: species or system mouse; conditions: 2 μM Cy5-Apt, 30 minutes at 4° C., peripheral blood of healthy mice; FIG. 2D
Description: To test for ex vivo binding specificity and affinity, 100 μL peripheral blood from healthy mice was withdrawn via the submandibular vein, collected in EDTA-containing anticoagulant tubes (BD Vacutainer), and incubated with 2 mL ACK lysing buffer for 10 minutes to lyse the red blood cells. After that, 2% FBS in PBS was added to stop the reaction. Following centrifugation (300 g for 3 minutes at 4° C.) the supernatants were removed. One million cells were blocked by CD16/CD32 Fc blocking antibody (1:100; Invitrogen) after incubation for 20 minutes. Then the cells were stained for CD45 (PE-Cy7; 1:100; Biolegend), CD11b (PE; 1:200; Biolegend) and 2 μM Cy5-Apt for 30 minutes at 4° C. Finally, the cells were washed by 2% FBS in PBS and subjected to flow cytometry using standard protocols known in the art.

B1: J10: monocyte-specific DNA aptamer from cell-SELEX, SEQ ID NO. 4 (Table 2); Cy5-labeled for flow cytometry (nucleic acid)
DNA: CAATAGAGTCGTACAGGTCGACGCTCGGATGCCACTACAGGGATGGGAGGGAGGGGGCTCGTGGCGGCTAGGGGGTATAACTCATGGACGTGCTGGTGAC
modifications: DNA, backbone and methylation of C not given here; Cy5 label
- binding affinity to U937 [1]: high binding affinity
- detection of Cy5-labeled aptamer in SVEC [2]: no detection
- binding affinity to HUVEC [3]: but not human endothelial cell line HUVEC
- binding affinity to THP-1 [4]: high binding affinity
- in vivo targeting of aptamer to the injured site (PCR) [5]: confirmed in vivo targeting ability
- percentage of Cy5-labeled monocytes (J774A.1) [6]: significantly higher than the percentage of Cy5-labeled S2 monocytes
- percentage of Cy5-labeled monocytes (RAW264.7) [7]: significantly higher than the percentage of Cy5-labeled S2 monocytes
- affinity to circulating myeloid cells (CD45+ CD11b+ cells) [8]: high affinity

B2: S2: control aptamer, scrambled J10 sequence with same nucleotide composition, SEQ ID NO. 5 (nucleic acid)
DNA: CAATAGAGTCGTACAGGTCGTGAGAAGGCGTTGGTCTATCGGGGTCGTGGACTGTCCAAGGGCATGACCGGTCTGACGGTGGCCAGAGACGCAGGAGGGG
modifications: DNA, backbone and methylation of C not given here; Cy5 label
- binding affinity to U937 [1]: no binding affinity
- detection of Cy5-labeled aptamer in SVEC [2]: no detection
- binding affinity to HUVEC [3]: no binding affinity
- binding affinity to THP-1 [4]: no binding affinity
- percentage of Cy5-labeled monocytes (J774A.1) [6]: but not S2, was capable of binding selectively to monocytes in vitro
- percentage of Cy5-labeled monocytes (RAW264.7) [7]: but not S2, was capable of binding selectively to monocytes in vitro
